Changes are numbered by the printed parent chain. Numbered stars: 1 amine (or outer) side, 2 acyl side, 3 side chain; on linkers, the order of the positions; unused ones are H or OH. Bridge positions count the residues as written; N and C are the ends. Side chains are listed from the residue outwards. Ends that are not written are not given here. * marks the point of attachment. C20 diacid = O=C(O)CCCCCCCCCCCCCCCCCCC(=O)*; γGlu = O=C(O)[C@H](CCC(=O)[*:2])N[*:1]; AEEA = NCCOCCOCC(=O)O
T1: human calcitonin receptor (human, UniProt P30988 25-474)
T1 construct: whole, on cells; membranes of stably transfected BHK cells (Assay VII); also called hCTR; hCT
T1 sequence (looked up): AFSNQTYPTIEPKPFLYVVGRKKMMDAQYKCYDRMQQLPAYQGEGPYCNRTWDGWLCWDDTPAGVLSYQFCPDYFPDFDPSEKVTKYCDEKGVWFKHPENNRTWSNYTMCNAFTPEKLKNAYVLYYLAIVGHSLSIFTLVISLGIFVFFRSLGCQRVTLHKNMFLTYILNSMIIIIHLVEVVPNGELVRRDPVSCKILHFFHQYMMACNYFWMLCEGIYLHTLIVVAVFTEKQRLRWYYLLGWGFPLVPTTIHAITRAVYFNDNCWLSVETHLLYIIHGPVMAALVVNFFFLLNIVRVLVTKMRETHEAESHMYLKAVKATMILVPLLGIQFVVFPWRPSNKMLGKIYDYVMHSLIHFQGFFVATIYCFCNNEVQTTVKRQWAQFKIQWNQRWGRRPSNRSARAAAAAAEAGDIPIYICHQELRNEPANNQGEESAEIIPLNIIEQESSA

T2: rat calcitonin receptor (rat, UniProt P32214 25-516)
T2 construct: whole, on cells; membranes of transiently transfected BHK tk'ts 13 cells (Assay VIII); also called rCTR; rat calcitonin (a) receptor
T2 sequence (looked up): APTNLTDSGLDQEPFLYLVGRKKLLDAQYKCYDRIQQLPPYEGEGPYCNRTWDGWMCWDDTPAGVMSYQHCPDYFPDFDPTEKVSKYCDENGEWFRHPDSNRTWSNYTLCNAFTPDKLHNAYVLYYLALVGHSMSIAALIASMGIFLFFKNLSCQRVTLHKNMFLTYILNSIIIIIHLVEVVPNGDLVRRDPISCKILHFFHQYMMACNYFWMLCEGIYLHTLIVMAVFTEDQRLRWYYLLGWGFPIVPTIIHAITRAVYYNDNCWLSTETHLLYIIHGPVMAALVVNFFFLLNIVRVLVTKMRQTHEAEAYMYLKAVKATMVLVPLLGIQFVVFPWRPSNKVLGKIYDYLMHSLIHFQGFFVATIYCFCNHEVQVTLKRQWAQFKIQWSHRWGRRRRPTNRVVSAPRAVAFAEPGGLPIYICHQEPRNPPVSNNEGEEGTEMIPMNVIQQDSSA

T3: rat amylin receptor (rat calcitonin receptor + rat RAMP 3) (rat, UniProt P32214 25-516; Q9JJ73 23-147)
T3 construct: whole, on cells; membranes of transiently transfected BHK tk'ts 13 cells (Assay VI); also called rAmylin-R; rat amylin 3(a) receptor
T3 sequence (looked up) 1: T2 sequence (looked up)
T3 sequence (looked up) 2: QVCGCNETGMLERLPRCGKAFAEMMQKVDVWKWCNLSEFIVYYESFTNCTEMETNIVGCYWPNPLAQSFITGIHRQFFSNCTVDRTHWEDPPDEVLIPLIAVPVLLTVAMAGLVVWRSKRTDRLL

B1: N^α1-[(4S)-4-carboxy-4-(19-carboxynonadecanoylamino)butanoyl]-[Arg17,Pro21,Pro27]-h-amylin (peptide)
peptide: KCNTATCATQRLANFLRHSSPNFGAIPSSTNVGSNTY
modifications: C20 diacid-gGlu on the alpha amino group of the N-terminal residue (Lys 1); disulfide bridge between the two Cys residues; C-terminal amide
notes: analogue of human amylin; also called compound 21
B2: N^α1-[2-[2-[2-[[2-[2-[2-[[(4S)-4-carboxy-4-(19-carboxynonadecanoylamino)butanoyl]amino]ethoxy]ethoxy]acetyl]amino]ethoxy]ethoxy]acetyl]-[Glu14,Arg17,Pro21,Pro27 … (peptide)
peptide: B1 peptide with N14E
modifications: C20 diacid-gGlu-2xOEG on the alpha amino group of the N-terminal residue (Lys 1); disulfide bridge between the two Cys residues; C-terminal amide
notes: analogue of human amylin; also called compound 19
B3: N^ε1-[2-[2-[2-[[(4S)-4-carboxy-4-(19-carboxynonadecanoylamino)butanoyl]amino]ethoxy]ethoxy]acetyl]-[Arg17,Pro21,Pro27,Glu35]-h-amylin (peptide)
peptide: K([AEEA-γGlu-C20 diacid])CNTATCATQRLANFLRHSSPNFGAIPSSTNVGSETY-NH2
modifications: disulfide 2-7 (inferred)
notes: analogue of human amylin; also called compound 26
B4: N^α1-[(4S)-4-carboxy-4-(19-carboxynonadecanoylamino)butanoyl]-[Glu14,Arg17,Pro21,Pro27,His34]-h-amylin (peptide)
peptide: {C20 diacid-γGlu}-KCNTATCATQRLAEFLRHSSPNFGAIPSSTNVGHNTY-NH2
modifications: disulfide 2-7 (inferred)
notes: analogue of human amylin; also called compound 17
B5: N^α1-[(4S)-4-carboxy-4-(19-carboxynonadecanoylamino)butanoyl]-[Arg17,Pro21,Pro27,Lys35]-h-amylin (peptide)
peptide: B1 peptide with N35K
modifications: C20 diacid-gGlu on the alpha amino group of the N-terminal residue (Lys 1); disulfide bridge between the two Cys residues; C-terminal amide
notes: analogue of human amylin; also called compound 34
B6: N^α1-[(4S)-4-carboxy-4-(19-carboxynonadecanoylamino)butanoyl]-[Glu14,Arg17,Pro21,Pro26]-h-amylin (peptide)
peptide: {C20 diacid-γGlu}-KCNTATCATQRLAEFLRHSSPNFGAPLSSTNVGSNTY-NH2
modifications: disulfide 2-7 (inferred)
notes: analogue of human amylin; also called compound 7
B7: N^α1-[(4S)-4-carboxy-4-(19-carboxynonadecanoylamino)butanoyl]-[Arg17,Pro21,Pro27,Pro34,Glu35]-h-amylin (peptide)
peptide: {C20 diacid-γGlu}-KCNTATCATQRLANFLRHSSPNFGAIPSSTNVGPETY-NH2
modifications: disulfide 2-7 (inferred)
notes: analogue of human amylin; also called compound 29
B8: N^ε1-[2-[2-[2-[[(4S)-4-carboxy-4-(19-carboxynonadecanoylamino)butanoyl]amino]ethoxy]ethoxy]acetyl]-[Arg17,Pro21,Pro27,Pro31]-h-amylin (peptide)
peptide: K([AEEA-γGlu-C20 diacid])CNTATCATQRLANFLRHSSPNFGAIPSSTPVGSNTY-NH2
modifications: disulfide 2-7 (inferred)
notes: analogue of human amylin; also called compound 49
B9: N^α1-[(4S)-4-carboxy-4-(19-carboxynonadecanoylamino)butanoyl]-[Glu14,Arg17,Pro21,Pro27,Pro31]-h-amylin (peptide)
peptide: {C20 diacid-γGlu}-KCNTATCATQRLAEFLRHSSPNFGAIPSSTPVGSNTY-NH2
modifications: disulfide 2-7 (inferred)
notes: analogue of human amylin; also called compound 31

Target: T1, human calcitonin receptor
Assay: IC50 on human calcitonin receptor divided by IC50 on human amylin receptor (SPA competition)
Protocol: The resulting pellet was resuspended, homogenized and centrifuged (20.000 rpm, 15 min) in a buffer containing 20 mM Na-HEPES and 0.1 mM EDTA (pH 7.4, buffer 2). The resulting pellet was resuspended in buffer 2 and protein concentration was measured (BCA protein Assay, Pierce). The homogenate was kept cold during the whole procedure. The membranes were kept at −80° C. until use. The assay was performed in a 384 well Optiplate (PerkinElmer) in a total volume of 40 ul. Membranes were mixed with SPA beads. Final concentration of membranes 35 ng/μL final and SPA beads was 0.05 mg/well. Test-compounds were dissolved in DMSO and further diluted in assay buffer (50 mM Hepes, pH 7.4, 1 mM CaCl2, 5 mM MgCl₂, 0.1% OA and 0.02% Tween20). […] The final mixture was incubated with shaking at 400 rpm for 120 min at 25° C. prior to centrifugation (1500 rpm, 10 min). Samples were analyzed on TopCounter™ (Packard). The IC₅₀ was calculated using (one site binding competition analysis) GraphPad Prism5 as a measure of receptor affinity.
Membranes were prepared in the following way; the cells were rinsed with PBS and incubated with Versene for approximately 5 min before harvesting. The cells were flushed with PBS and the cell-suspension was centrifuged for 5 min at 1000 rpm. Cells were homogenized (Ultrathurrax) in a buffer containing 20 mM Na-HEPES and 10 mM EDTA (pH 7.4) and centrifuged at 20.000 rpm for 15 min. The resulting pellet was resuspended, homogenized and centrifuged (20.000 rpm, 15 min) in a buffer containing 20 mM Na-HEPES and 0.1 mM EDTA (pH 7.4, buffer 2). The resulting pellet was resuspended in buffer 2 and protein concentration was measured (BCA protein Assay, Pierce). The homogenate was kept cold during the whole procedure. The membranes were kept at −80° C. until use. Assay was performed in a 384 well Optiplate (PerkinElmer) in a total volume of 40 ul. Membranes were mixed with SPA beads.

| Ratio hCT/hAmylin binding | Binder |
| --- | --- |
| 24.4 | B1 |
| 36.7 | B2 |
| 47.5 | B3 |
| 12.5 | B4 |
| 64.4 | B5 |
| 16.5 | B6 |
| 13.9 | B7 |
| 10.8 | B8 |
| 16 | B9 |

Target: T2, rat calcitonin receptor
Assay: SPA competition with 125I-calcitonin, membranes of BHK cells with rat calcitonin receptor (Assay VIII)

| IC50 [nM] | Binder |
| --- | --- |
| 27.9 | B1 |
| 95.6 | B2 |
| 152 | B3 |
| 97.2 | B4 |
| 89.2 | B5 |
| 47.2 | B6 |
| 21.6 | B7 |
| 51.4 | B8 |
| 26.5 | B9 |

Target: T3, rat amylin receptor (rat calcitonin …)
Assay: SPA competition with 125I-rat amylin, membranes of BHK cells with rat calcitonin receptor + rat RAMP3 (Assay VI)

| IC50 [nM] | Binder |
| --- | --- |
| 1.48 | B1 |
| 1.02 | B2 |
| 0.491 | B3 |
| 2.71 | B4 |
| 1.72 | B5 |
| 1.12 | B6 |
| 0.322 | B7 |
| 1.08 | B8 |
| 0.619 | B9 |

Target: T2, rat calcitonin receptor
Assay: IC50 on rat calcitonin receptor divided by IC50 on rat amylin receptor (SPA competition)

| Ratio rCT/rAmylin binding | Binder |
| --- | --- |
| 18.8 | B1 |
| 93.6 | B2 |
| 309 | B3 |
| 35.9 | B4 |
| 52 | B5 |
| 42 | B6 |
| 67 | B7 |
| 47.7 | B8 |
| 42.8 | B9 |

From US20140087995A1 (published 2014)
